PMC314469, “Protein Interaction Networks by Proteome Peptide Scanning” (PLoS Biology, 2004)

How the values were obtained:
Assay in all cases: SPOT array
[1] = target: T1, Boi1 SH3 (BOI1_YEAST), P38041
T1 chain: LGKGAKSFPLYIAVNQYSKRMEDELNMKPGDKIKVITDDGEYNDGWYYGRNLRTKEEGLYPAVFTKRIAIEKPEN

[2] = target: T2, Boi2 SH3 (BOI2_YEAST), P39969
T2 chain: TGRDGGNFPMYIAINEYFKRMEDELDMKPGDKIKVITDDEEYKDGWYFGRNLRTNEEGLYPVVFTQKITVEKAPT

[3] = target: T3, Myo5 SH3 (MYO5_YEAST), Q04439
T3 chain: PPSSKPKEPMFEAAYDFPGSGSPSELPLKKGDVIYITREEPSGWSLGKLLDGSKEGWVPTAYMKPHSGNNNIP

[4] = target: T4, Rvs167 SH3 (RV167_YEAST), P39743
T4 chain: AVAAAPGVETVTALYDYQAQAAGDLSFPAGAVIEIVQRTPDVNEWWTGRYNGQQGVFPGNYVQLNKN

[5] = target: Sho1 SH3 (SHO1_YEAST), P40073
Sequence of Sho1 SH3 (SHO1_YEAST), P40073 (P40073 295-366): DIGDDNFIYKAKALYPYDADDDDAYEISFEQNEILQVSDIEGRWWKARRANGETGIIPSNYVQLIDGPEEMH

[6] = target: T5, Yfr024 SH3 (LSB3_YEAST), P43603
T5 chain: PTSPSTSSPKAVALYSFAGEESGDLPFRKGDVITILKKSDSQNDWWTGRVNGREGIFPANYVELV

[7] = target: T6, Yhr016c SH3 (YSC84_YEAST), P32793
T6 chain: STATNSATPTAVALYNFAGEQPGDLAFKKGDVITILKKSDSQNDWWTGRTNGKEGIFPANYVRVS

NNSTRPIPAIPMDL [YJL133W 8-21]
normalised SPOT signal, Boehringer light units (BLU); mean over the file's lines of this peptide [1]: 203 | normalised SPOT signal, Boehringer light units (BLU); mean over the file's lines of this peptide [2]: 20.8 | normalised SPOT signal, Boehringer light units (BLU); mean over the file's lines of this peptide [3]: 247 | normalised SPOT signal, Boehringer light units (BLU); mean over the file's lines of this peptide [4]: 58900 | normalised SPOT signal, Boehringer light units (BLU); mean over the file's lines of this peptide [5]: 1770 | normalised SPOT signal, Boehringer light units (BLU); mean over the file's lines of this peptide [6]: 39600 | normalised SPOT signal, Boehringer light units (BLU); mean over the file's lines of this peptide [7]: 44100

NNLKKRPPTAPQRK [YPR171W 465-478]
normalised SPOT signal, Boehringer light units (BLU); mean over the file's lines of this peptide [1]: 2270 | normalised SPOT signal, Boehringer light units (BLU); mean over the file's lines of this peptide [2]: 152 | normalised SPOT signal, Boehringer light units (BLU); mean over the file's lines of this peptide [3]: 419 | normalised SPOT signal, Boehringer light units (BLU); mean over the file's lines of this peptide [4]: 6090 | normalised SPOT signal, Boehringer light units (BLU); mean over the file's lines of this peptide [5]: 64.6 | normalised SPOT signal, Boehringer light units (BLU); mean over the file's lines of this peptide [6]: 6960 | normalised SPOT signal, Boehringer light units (BLU); mean over the file's lines of this peptide [7]: 4310

NRKQRSIPLSPIVP [YEL009C 209-222]
normalised SPOT signal, Boehringer light units (BLU); mean over the file's lines of this peptide [1]: 2120 | normalised SPOT signal, Boehringer light units (BLU); mean over the file's lines of this peptide [2]: 77.3 | normalised SPOT signal, Boehringer light units (BLU); mean over the file's lines of this peptide [3]: 491 | normalised SPOT signal, Boehringer light units (BLU); mean over the file's lines of this peptide [4]: 307 | normalised SPOT signal, Boehringer light units (BLU); mean over the file's lines of this peptide [5]: 183 | normalised SPOT signal, Boehringer light units (BLU); mean over the file's lines of this peptide [6]: 1250 | normalised SPOT signal, Boehringer light units (BLU); mean over the file's lines of this peptide [7]: 521

NSFSKNDPNFPILK [YFL036W 156-169]
normalised SPOT signal, Boehringer light units (BLU); mean over the file's lines of this peptide [1]: 203 | normalised SPOT signal, Boehringer light units (BLU); mean over the file's lines of this peptide [2]: 34.2 | normalised SPOT signal, Boehringer light units (BLU); mean over the file's lines of this peptide [3]: 160 | normalised SPOT signal, Boehringer light units (BLU); mean over the file's lines of this peptide [4]: 82.4 | normalised SPOT signal, Boehringer light units (BLU); mean over the file's lines of this peptide [5]: 106 | normalised SPOT signal, Boehringer light units (BLU); mean over the file's lines of this peptide [6]: 58.8 | normalised SPOT signal, Boehringer light units (BLU); mean over the file's lines of this peptide [7]: 57.1

NQIARQIPFQPWYL [YLR083C 510-523]
normalised SPOT signal, Boehringer light units (BLU); mean over the file's lines of this peptide [1]: 22.9 | normalised SPOT signal, Boehringer light units (BLU); mean over the file's lines of this peptide [2]: 36.1 | normalised SPOT signal, Boehringer light units (BLU); mean over the file's lines of this peptide [3]: 248 | normalised SPOT signal, Boehringer light units (BLU); mean over the file's lines of this peptide [4]: 100 | normalised SPOT signal, Boehringer light units (BLU); mean over the file's lines of this peptide [5]: 75.8 | normalised SPOT signal, Boehringer light units (BLU); mean over the file's lines of this peptide [6]: 312 | normalised SPOT signal, Boehringer light units (BLU); mean over the file's lines of this peptide [7]: 50.4

NSFRKILPQEPEIW [YBR055C 389-402]
normalised SPOT signal, Boehringer light units (BLU); mean over the file's lines of this peptide [1]: 1170 | normalised SPOT signal, Boehringer light units (BLU); mean over the file's lines of this peptide [2]: 219 | normalised SPOT signal, Boehringer light units (BLU); mean over the file's lines of this peptide [3]: 235 | normalised SPOT signal, Boehringer light units (BLU); mean over the file's lines of this peptide [4]: 524 | normalised SPOT signal, Boehringer light units (BLU); mean over the file's lines of this peptide [5]: 1820 | normalised SPOT signal, Boehringer light units (BLU); mean over the file's lines of this peptide [6]: 1280 | normalised SPOT signal, Boehringer light units (BLU); mean over the file's lines of this peptide [7]: 1260

NLYQRTTPAGPDPS [YOL019W 467-480]
normalised SPOT signal, Boehringer light units (BLU); mean over the file's lines of this peptide [1]: 585 | normalised SPOT signal, Boehringer light units (BLU); mean over the file's lines of this peptide [2]: 126 | normalised SPOT signal, Boehringer light units (BLU); mean over the file's lines of this peptide [3]: 114 | normalised SPOT signal, Boehringer light units (BLU); mean over the file's lines of this peptide [4]: 344 | normalised SPOT signal, Boehringer light units (BLU); mean over the file's lines of this peptide [5]: 60.6 | normalised SPOT signal, Boehringer light units (BLU); mean over the file's lines of this peptide [6]: 389 | normalised SPOT signal, Boehringer light units (BLU); mean over the file's lines of this peptide [7]: 1140

NPIPKSVPLHPKSG [YEL019C 6-19]
normalised SPOT signal, Boehringer light units (BLU); mean over the file's lines of this peptide [1]: 225 | normalised SPOT signal, Boehringer light units (BLU); mean over the file's lines of this peptide [2]: 7.9 | normalised SPOT signal, Boehringer light units (BLU); mean over the file's lines of this peptide [3]: 364 | normalised SPOT signal, Boehringer light units (BLU); mean over the file's lines of this peptide [4]: 7.3 | normalised SPOT signal, Boehringer light units (BLU); mean over the file's lines of this peptide [5]: 28.7 | normalised SPOT signal, Boehringer light units (BLU); mean over the file's lines of this peptide [6]: 88.1 | normalised SPOT signal, Boehringer light units (BLU); mean over the file's lines of this peptide [7]: 467

NLSLRYAPNLPPVI [YHL035C 1327-1340]
normalised SPOT signal, Boehringer light units (BLU); mean over the file's lines of this peptide [1]: 360 | normalised SPOT signal, Boehringer light units (BLU); mean over the file's lines of this peptide [2]: 25.4 | normalised SPOT signal, Boehringer light units (BLU); mean over the file's lines of this peptide [3]: 779 | normalised SPOT signal, Boehringer light units (BLU); mean over the file's lines of this peptide [4]: 216 | normalised SPOT signal, Boehringer light units (BLU); mean over the file's lines of this peptide [5]: 40.5 | normalised SPOT signal, Boehringer light units (BLU); mean over the file's lines of this peptide [6]: 154 | normalised SPOT signal, Boehringer light units (BLU); mean over the file's lines of this peptide [7]: 135

NSNVRIPPTVPSKI [YGR198W 3-16]
normalised SPOT signal, Boehringer light units (BLU); mean over the file's lines of this peptide [1]: 178 | normalised SPOT signal, Boehringer light units (BLU); mean over the file's lines of this peptide [2]: 16.9 | normalised SPOT signal, Boehringer light units (BLU); mean over the file's lines of this peptide [3]: 423 | normalised SPOT signal, Boehringer light units (BLU); mean over the file's lines of this peptide [4]: 155 | normalised SPOT signal, Boehringer light units (BLU); mean over the file's lines of this peptide [5]: 1460 | normalised SPOT signal, Boehringer light units (BLU); mean over the file's lines of this peptide [6]: 1510 | normalised SPOT signal, Boehringer light units (BLU); mean over the file's lines of this peptide [7]: 113

NQIARQIPYQPWYL [YDR107C 515-528]
normalised SPOT signal, Boehringer light units (BLU); mean over the file's lines of this peptide [1]: 105 | normalised SPOT signal, Boehringer light units (BLU); mean over the file's lines of this peptide [2]: 37.7 | normalised SPOT signal, Boehringer light units (BLU); mean over the file's lines of this peptide [3]: 164 | normalised SPOT signal, Boehringer light units (BLU); mean over the file's lines of this peptide [4]: 33.3 | normalised SPOT signal, Boehringer light units (BLU); mean over the file's lines of this peptide [5]: 47.5 | normalised SPOT signal, Boehringer light units (BLU); mean over the file's lines of this peptide [6]: 145 | normalised SPOT signal, Boehringer light units (BLU); mean over the file's lines of this peptide [7]: 42.8

NSGEKIYPQEPPIS [YJL020C 582-595]
normalised SPOT signal, Boehringer light units (BLU); mean over the file's lines of this peptide [1]: 53.9 | normalised SPOT signal, Boehringer light units (BLU); mean over the file's lines of this peptide [2]: 0 | normalised SPOT signal, Boehringer light units (BLU); mean over the file's lines of this peptide [3]: 112 | normalised SPOT signal, Boehringer light units (BLU); mean over the file's lines of this peptide [4]: 43.4 | normalised SPOT signal, Boehringer light units (BLU); mean over the file's lines of this peptide [5]: 25.7 | normalised SPOT signal, Boehringer light units (BLU); mean over the file's lines of this peptide [6]: 22.7 | normalised SPOT signal, Boehringer light units (BLU); mean over the file's lines of this peptide [7]: 16.6

NPMQKPVPFVPVLD [YKL182W 1009-1022]
normalised SPOT signal, Boehringer light units (BLU); mean over the file's lines of this peptide [1]: 66.8 | normalised SPOT signal, Boehringer light units (BLU); mean over the file's lines of this peptide [2]: 50.2 | normalised SPOT signal, Boehringer light units (BLU); mean over the file's lines of this peptide [3]: 420 | normalised SPOT signal, Boehringer light units (BLU); mean over the file's lines of this peptide [4]: 284 | normalised SPOT signal, Boehringer light units (BLU); mean over the file's lines of this peptide [5]: 191 | normalised SPOT signal, Boehringer light units (BLU); mean over the file's lines of this peptide [6]: 2450 | normalised SPOT signal, Boehringer light units (BLU); mean over the file's lines of this peptide [7]: 299

NSTVRRKPHSPNKK [YDR223W 8-21]
normalised SPOT signal, Boehringer light units (BLU); mean over the file's lines of this peptide [1]: 481 | normalised SPOT signal, Boehringer light units (BLU); mean over the file's lines of this peptide [2]: 102 | normalised SPOT signal, Boehringer light units (BLU); mean over the file's lines of this peptide [3]: 956 | normalised SPOT signal, Boehringer light units (BLU); mean over the file's lines of this peptide [4]: 722 | normalised SPOT signal, Boehringer light units (BLU); mean over the file's lines of this peptide [5]: 147 | normalised SPOT signal, Boehringer light units (BLU); mean over the file's lines of this peptide [6]: 821 | normalised SPOT signal, Boehringer light units (BLU); mean over the file's lines of this peptide [7]: 1830

NRANKYDPKGPIYN [YOL049W 169-182]
normalised SPOT signal, Boehringer light units (BLU); mean over the file's lines of this peptide [1]: 545 | normalised SPOT signal, Boehringer light units (BLU); mean over the file's lines of this peptide [2]: 0 | normalised SPOT signal, Boehringer light units (BLU); mean over the file's lines of this peptide [3]: 205 | normalised SPOT signal, Boehringer light units (BLU); mean over the file's lines of this peptide [4]: 109 | normalised SPOT signal, Boehringer light units (BLU); mean over the file's lines of this peptide [5]: 21.7 | normalised SPOT signal, Boehringer light units (BLU); mean over the file's lines of this peptide [6]: 58 | normalised SPOT signal, Boehringer light units (BLU); mean over the file's lines of this peptide [7]: 77.6

NPFVRINPNRPEAA [YBR136W 500-513]
normalised SPOT signal, Boehringer light units (BLU); mean over the file's lines of this peptide [1]: 444 | normalised SPOT signal, Boehringer light units (BLU); mean over the file's lines of this peptide [2]: 47.2 | normalised SPOT signal, Boehringer light units (BLU); mean over the file's lines of this peptide [3]: 276 | normalised SPOT signal, Boehringer light units (BLU); mean over the file's lines of this peptide [4]: 56.6 | normalised SPOT signal, Boehringer light units (BLU); mean over the file's lines of this peptide [5]: 35.9 | normalised SPOT signal, Boehringer light units (BLU); mean over the file's lines of this peptide [6]: 344 | normalised SPOT signal, Boehringer light units (BLU); mean over the file's lines of this peptide [7]: 73.5
